8 molecules from article PMC7144947 can be followed below.

The target of series [1] is T1, Sox2 (Mus musculus, UniProt P48432 1-319). Description: EMSA.
Series [2] addresses T2, Sox2-ΔRBM (Mus musculus, UniProt P48432 1-319, del121-180). Description: EMSA.
Series [3] has as its target Sox2(180-319) (Mus musculus, UniProt P48432 180-319). Nature of the series: EMSA.
The target of series [4] is Sox1 (Mus musculus, UniProt P53783 1-391). Nature of the series: EMSA.
Series [5] concerns the target Sox2(1-180) (Mus musculus, UniProt P48432 1-180). Nature of the series: EMSA.
The target in series [6] is Sox2(1-120) (Mus musculus, UniProt P48432 1-120). Nature of the series: EMSA.
For series [7], the target named is T3, Sox2-ΔHMG (Mus musculus, UniProt P48432 1-319, del41-118). Nature of the series: EMSA.
The target of series [8] is T2, Sox2-ΔRBM. Description: EMSA. This is another data set of the same source.
The target in series [9] is T1, Sox2. Description: EMSA. The source holds these as a separate data set.
Series [10] concerns the target Sox11 (UniProt Q7M6Y2 1-395). Description: EMSA.
For series [11], the target named is Sox2(120-319) (Mus musculus, UniProt P48432 120-319). Nature of the series: EMSA.
Series [12] addresses T2, Sox2-ΔRBM. Nature of the series: competition.
In series [13] the target is T3, Sox2-ΔHMG. Nature of the series: competition.
Series [14] addresses Sox2-HMG (Mus musculus, UniProt P48432 41-120). Description: competition.
In series [15] the target is T3, Sox2-ΔHMG. Nature of the series: competition. The source holds these as a separate data set.
Series [16] has as its target T2, Sox2-ΔRBM. Nature of the series: in vitro RIP.

Where two headings read alike, the source gives them in different places.

Sox11, sequence (Q7M6Y2 whole entry): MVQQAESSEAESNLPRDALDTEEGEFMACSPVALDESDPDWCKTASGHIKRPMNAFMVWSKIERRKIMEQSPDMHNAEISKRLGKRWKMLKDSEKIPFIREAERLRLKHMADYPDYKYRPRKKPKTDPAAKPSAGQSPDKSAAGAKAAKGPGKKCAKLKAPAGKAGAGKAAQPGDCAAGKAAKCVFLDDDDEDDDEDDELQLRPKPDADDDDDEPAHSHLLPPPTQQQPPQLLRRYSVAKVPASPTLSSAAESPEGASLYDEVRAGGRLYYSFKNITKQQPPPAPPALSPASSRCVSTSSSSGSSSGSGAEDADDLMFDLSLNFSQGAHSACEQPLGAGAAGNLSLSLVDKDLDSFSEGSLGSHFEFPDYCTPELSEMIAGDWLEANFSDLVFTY
Sox1, sequence (P53783 whole entry): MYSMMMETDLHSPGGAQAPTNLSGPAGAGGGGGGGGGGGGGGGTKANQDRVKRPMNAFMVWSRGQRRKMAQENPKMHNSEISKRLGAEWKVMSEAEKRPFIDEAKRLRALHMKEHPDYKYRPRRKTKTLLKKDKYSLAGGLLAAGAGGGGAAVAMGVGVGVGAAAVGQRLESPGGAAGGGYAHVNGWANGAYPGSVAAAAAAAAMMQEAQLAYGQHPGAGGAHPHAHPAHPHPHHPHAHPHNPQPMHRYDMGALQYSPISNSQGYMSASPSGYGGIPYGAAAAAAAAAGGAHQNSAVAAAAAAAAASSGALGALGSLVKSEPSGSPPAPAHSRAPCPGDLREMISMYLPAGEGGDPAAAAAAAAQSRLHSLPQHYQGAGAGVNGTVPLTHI

As for CGCGGCUUGCCCUAUCGCGGUGUAG (structured_RNA) [12th-24 RNA], the binding result in series [1] is “binds”; in [2], “binds”; in [3] it was “no binding”; in [4], “binds”; in series [5] it was “binds”; in [6], “binds”. For the same molecule, the binding result in [7] was “binds”.

B1: Sox2/Prox1 DNA (dsDNA)
DNA 1: CTAGCATTGTCTGGG
DNA 2: CCCAGACAATGCTAG
Consider B1, for which the binding result in series [8], in series [9] and in series [10] was “binds” throughout.

Take CCUGCAGCUCAUGACCCCUGCUUCC (ssRNA) [Dicer1 RNA]: the binding result in series [3] is “no binding”; in series [10], “no binding”; in series [11], “binds”; in series [7] it was “binds”.

Turning to CGCGGCUUGCCCUAUCGCGGUGUAG (structured_RNA) [12th-24 RNA unlabelled], the binding result in [12] is recorded as “binds”; in [13], “binds”; in series [14], “no binding”.

B2: Prox1 DNA unlabelled (dsDNA)
DNA 1: CTAGCATTGTCTGGG
DNA 2: CCCAGACAATGCTAG
B2: the binding result in series [12] is on record as “binds”; in [14], “binds”; in series [15], “no binding”.

GCGGCAAGCCCAUACUCGCGUUCAA (ssRNA) [12th-15 RNA]: the binding result in [1] is “binds”; in [10] it was “no binding”.

As for CAGCUUUUCCCUGUAGUCAUGAAUG (ssRNA) [Dnmt3b RNA], the binding result is reported as “no binding” in [3], “no binding” in series [10], “binds” in series [11] and “binds” in [7].

Turning to CGCGGCUUGCCCUAUUAUAGUGUAG (ssRNA) [12th-24 Mut3], in series [16], the binding result is given as “binds”.
